Source: patent EP4491631A1
Numbering of substitutions follows the chain as printed. Each block holds one binder with its values, some of them ahead of it.

Target: cynomolgus PD-1 expressed on cells (cynomolgus monkey) (UniProt B0LAJ3)
Assay: flow cytometry, CHO-S Cyno-PD-1

Sequence of cynomolgus PD-1 expressed on cells (cynomolgus monkey) (B0LAJ3 entry or part of it limits assumed): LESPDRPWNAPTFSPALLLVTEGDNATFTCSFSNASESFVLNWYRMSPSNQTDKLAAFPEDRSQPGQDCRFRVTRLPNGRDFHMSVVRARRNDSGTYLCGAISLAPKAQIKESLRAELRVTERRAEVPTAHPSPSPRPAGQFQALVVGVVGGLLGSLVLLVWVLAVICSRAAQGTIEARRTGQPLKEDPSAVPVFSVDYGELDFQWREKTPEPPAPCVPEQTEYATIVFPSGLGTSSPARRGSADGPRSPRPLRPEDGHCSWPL

Max MFI: 109 MFI
B1: z2-XVT458 (antibody, IgG1, V domains shown)
VH: QVQLVQSGAEVKKPGASVKVSCKASGYTFTNFYIHWVRQAPGQGLEWMGSIYPNYGDTAYNQKFKDRVTMTVDTSTSTAYMELRSLRSDDTAVYYCARGYSYAMDYWGQGTTVTVSS
VL: DIQMTQSPSSVSASVGDRVTITCSASQGISGDLNWYQQKPGKAPKLLIYHTSSLHSGVPSRFSGSGSGTDFTLTISSLQPEDFATYYCQYYSKDLLTFGGGTKLEIK

Max MFI: 70 MFI
B2: XVT458-z2-m1 (antibody, V domains shown)
VH: B1 VH with D57F
VL: B1 VL with S30W, S53Q, G57D, Y90G

Max MFI: 367 MFI
B3: XVT458-z2-m2 (antibody, V domains shown)
VH: B1 VH with S50R, D57F
VL: B1 VL with S30Y, Y90A

Max MFI: 59 MFI
B4: XVT458-z2-m6 (antibody, V domains shown)
VH: B1 VH with D57I
VL: B1 VL with S53Q, G57D, Y90G

Max MFI: 335 MFI
B5: XVT458-z2-m5 (antibody, V domains shown)
VH: B1 VH with S50R, D57I
VL: B1 VL with S30Y, L54R, Y90A

Max MFI: 258 MFI
B6: XVT458-z2-m4 (antibody, V domains shown)
VH: B1 VH with S50R, D57I
VL: B1 VL with L54R, Y90G

Max MFI: 124 MFI
B7: XVT458-z2-m3 (antibody, V domains shown)
VH: B1 VH with S50R, D57I
VL: B1 VL with S53Q, L54R, G57D, Y90G
